B1: fragment containing amino acids 87-271: fragment containing amino acids 87-271 of wtGBP from E. coli (SEQ ID NO: 1) (protein)
chain: VVFFNKEPSRKALDSYDKAYYVGTDSKESGIIQGDLIAKHWAANQGWDLNKDGQIQFVLLKGEPGCPDAEARTTYVIKELNDKGIKTEQLQLDTAMWDTAQAKDKMDAWLSGPNANKIEVVIANNDAMAMGAVEALKAHNKSSIPVFGVDALPEALALVKSGALAGTVLNDANNQAKATFDLAKN
modifications: E. Coli
B2: SEQ ID NO: 3, where all natural tryptophans are replaced with 5-fluorotryptophans: unnatural analogue fragment of wtGBP, MDCC labeled (protein)
chain: DNFMSVVRKAIEQDAKAAPDVQLLMNDSQNDQSKQNDQIDVLLAKGVKALAINLVDPAAAGTVIEKARGQNVPVVFFNKEPSRKALDSYDKAYYVGTDSKESGIIQGDLIAKHWAANQGWDLNKDGQIQFVLLKGEPGHPDAEARTTYVIKELNDKGIKTEQLQLDTAMWDTAQAKDKMDAWLSGPNANKIEVVIANNDAMAMGAVEALKAHNKSSIPVFGVDALPEALALVKSGALAGTVLN
modifications: all Trp to 5-fluorotryptophan; MDCC label; E. Coli
notes: unnatural analogue fragment of wtGBP, MDCC labeled
B3: SEQ ID NO: 3, where all natural leucines are replaced with 5,5,5-trifluoroleucines: unnatural analogue fragment of wtGBP, MDCC labeled (protein)
chain: DNFMSVVRKAIEQDAKAAPDVQLLMNDSQNDQSKQNDQIDVLLAKGVKALAINLVDPAAAGTVIEKARGQNVPVVFFNKEPSRKALDSYDKAYYVGTDSKESGIIQGDLIAKHWAANQGWDLNKDGQIQFVLLKGEPGHPDAEARTTYVIKELNDKGIKTEQLQLDTAMWDTAQAKDKMDAWLSGPNANKIEVVIANNDAMAMGAVEALKAHNKSSIPVFGVDALPEALALVKSGALAGTVLN
modifications: all Leu to 5,5,5-trifluoroleucine; MDCC label; E. Coli
notes: as for B2
B4: tGBP2: fragment of wtGBP from E. coli including amino acids 14-256 of SEQ ID NO: 1 (protein)
chain: DNFMSVVRKAIEQDAKAAPDVQLLMNDSQNDQSKQNDQIDVLLAKGVKALAINLVDPAAAGTVIEKARGQNVPVVFFNKEPSRKALDSYDKAYYVGTDSKESGIIQGDLIAKHWAANQGWDLNKDGQIQFVLLKGEPGHPDAEARTTYVIKELNDKGIKTEQLQLDTAMWDTAQAKDKMDAWLSGPNANKIEVVIANNDAMAMGAVEALKAHNKSSIPVFGVDALPEALALVKSGALAGTVLN
modifications: E. Coli

Key:
Format in all cases: binding
[1] = Fragments of wtGBP in response to glucose: fluorescence quenching of labeled tGBPs; conditions: labeled tGBP 1×10^-7 M
Protocol: (§1) Once the PCR amplified gene fragments were obtained, they were inserted into expression vector pQE70. The constructed expression plasmids were then transformed into the auxotrophic strain of E. coli. Protein expression was performed using medium shift method. A single freshly transformed colony was used to inoculate 5 mL of M9 media supplemented with 0.4% glucose; 1 mM MgSO4; 0.1 mM CaCl2; 1 mM Thiamine; 0.1 volume of a solution containing 0.01% (w/v) each of 20 amino acids, less any amino acid that is to be replaced by unnatural amino acids (e.g., each of 19 amino acids where one is to be replaced); 40 μg/mL of the remaining amino acid(s) (e.g., 20th amino acid), and appropriate amount of antibiotic. T his culture was allowed to grow overnight at 37° C., 250 rpm. 500 mL culture containing the same ingredients was inoculated with the overnight grown 5 mL culture. This culture was then grown until the optical density (OD600) was about 0.5. The cells were then centrifuged at 10000 rpm for 10 min, 25° C., the supernatant was discarded and the cells were resuspended in a 0.9% NaCl solution for washing, and this was repeated three times. The cells were then resuspended in 500 mL M9 minimal media which was supplemented with 0.4% glucose, 1 mM MgSO4, 0.1 mM CaCl2, 1 mM Thiamine, 0.1 volume of a solution containing 0.01% (w/v) each of 20 amino acids less any amino acid(s) to be replaced by unnatural amino acids (e.g., 19 amino acids), appropriate amount of antibiotic, and grown at 37° C. for 30 min to further deplete natural amino acid that has to be replaced by the unnatural amino acid. 1 mM IPTG was then added with 0.1 mM of unnatural amino acid to the culture and was grown overnight at 37° C. The cells were harvested by centrifugation and the protein was purified using Ni-NTA resin since GBP mutant has His-tag. The purified protein was then labeled with fluorophore MDCC (N-[2-(1-maleimidyl(ethyl]-7-(diethylamino)coumarin-3-carboxamide), e.g., labeled at cysteine-152 of SEQ ID NO: 1.
Fragments of wtGBP in Response to Glucose. In order to check for activity of the labeled tGBPs, an assay was performed. Upon glucose binding, the proteins should undergo a conformational change, resulting in a change in the local environment of the fluorophore molecule, which leads to a change in the fluorescence signal observed. The assay was carried out by preparing glucose solutions of concentrations ranging from 1×10^−1M to 1×10^−6M. These glucose standards were then added to 180 μL samples of the labeled tGBPs at a concentration of 1×10^−7M. The resulting fluorescence intensity was measured. The results obtained from one study including the isolated polypeptide molecules of SEQ ID NO: 2 (tGBP1) and SEQ ID NO: 3 (tGBP2) are presented in Table C.

[2] = Fluorescence response to glucose of MDCC-labeled fragment amino acids 87-271 of wtGBP
Text: Expression and Labeling of Isolated Polypeptide Molecules. In order to obtain the gene for insertion into an expression vector, PCR amplification was employed. Primers were designed to amplify isolated polypeptide molecules of interest, e.g., polypeptide molecules of SEQ ID NOS: 1-7, and a fragment including amino acids 87-271 of SEQ ID NO: 1.
as §1

[3] = Unnatural analogues of wtGBP in response to glucose: fluorescence dose response; conditions: labeled protein 5×10^-7 M, glucose 10^-2 M-10^-8 M, 15 min, room temperature
Text: Unnatural Analogues of wtGBP with Unnatural Tryptophans. Unnatural analogues of wtGBP from E. coli were produced, where natural tryptophans were replaced with unnatural tryptophans. Tryptophan auxotrophic strain of E. coli (#27873) was obtained. Plasmid placI and plasmid pQE70 containing the genetic sequence of the wtGBP mutated at 152 (containing a cysteine in this position for fluorophore attachment) were transformed into the tryptophan auxotrophic strain of E. coli. Protein expression was performed using medium shift method. A single freshly transformed colony was used to inoculate 5 mL of M9 media supplemented with 0.4% glucose, 1 mM MgSO4, 0.1 mM CaCl2, 1 mM Thiamine, 0.1 volume of a solution containing 0.01% (w/v) each of 18 amino acids (less Trp and Leu), 40 μg/mL Leu, 40 μg/mL Trp, 100 μg/mL Ampicillin, and 35 μg/mL Chloramphenicol.
This culture was allowed to grow overnight at 37° C., 250 rpm. 500 mL culture containing the same ingredients was inoculated with the overnight grown 5 mL culture. This culture was then grown till the optical density (OD600) was about 0.5. […]
Unnatural Analogues of wtGBP in Response to Glucose. […] Fluorescence of the samples was then measured using a Carry Eclipse Fluorimeter.

Row | Molecule | Percent Fluorescence Quenching ([1]; Glucose 1 × 10^-1 M) [%] | Percent Fluorescence Quenching ([1]; Glucose 1 × 10^-2 M) [%] | Percent Fluorescence Quenching ([1]; Glucose 1 × 10^-3 M) [%] | Percent Fluorescence Quenching ([1]; Glucose 1 × 10^-4 M) [%] | Percent Fluorescence Quenching ([1]; Glucose 1 × 10^-5 M) [%] | Percent Fluorescence Quenching ([1]; Glucose 1 × 10^-6 M) [%] | Change in fluorescence intensity with increasing concentrations of glucose [3] | other results
1 | tGBP1: fragment of wtGBP from E. coli including amino acids 14-296 of SEQ ID NO: 1 | 20.37 | 14.61 | 7.5538 | 2.433 | 2.908 | −0.09539 |  | 
2 | B1 |  |  |  |  |  |  |  | Fluorescence Intensity (AVG) ([2]; Glucose Concentration 0 M): 485.282; Fluorescence Intensity (AVG) ([2]; Glucose Concentration 1.00E-03 M): 468.792; Fluorescence Intensity (AVG) ([2]; Glucose Concentration 1.00E-04 M): 467.383; Fluorescence Intensity (AVG) ([2]; Glucose Concentration 1.00E-05 M): 478.877; Fluorescence Intensity (AVG) ([2]; Glucose Concentration 1.00E-06 M): 497.146; Fluorescence Intensity (AVG) ([2]; Glucose Concentration 1.00E-07 M): 463.041; Fluorescence Intensity (AVG) ([2]; Glucose Concentration 1.00E-08 M): 442.682; Response to glucose (trend of fluorescence) ([2]; glucose 0 to 1.00E-03 M): large error and no clear trend in response to glucose
3 | B2 |  |  |  |  |  |  | dose-dependent change in fluorescence intensities | 
4 | B3 |  |  |  |  |  |  | dose-dependent change in fluorescence intensities | 
5 | B4 | 6.266 | 7.502 | 8.966 | 5.874 | 2.795 | 1.748 |  | 
